From article PMC4075432

Key:
[1] = molecular target: BCL2 (human (endogenous in OCI-LY8)) (UniProt P10415); experiment: co-IP
GST-BCL2 = GST-BCL2 (UniProt P10415); experiment: fluorescence polarisation

| Substance | percent of PARP1 displaced from BCL2 by 100 nM ABT-737 [1] [%] | Ki (GST-BCL2) [nM] |
| --- | --- | --- |
| poly(ADP) ribose polymerase 1 (PARP1) (from UniProt P09874 1-1014) (enzyme) | 65 |  |
| purified PARP1 (from UniProt P09874 1-1014) (enzyme) |  | 77 |
